From patent US20240058465A1 (SUTRO BIOPHARMA, published 2024)

Legend:
[1] = biological target: T1, human ROR1 (hROR1) expressed on cells (human, UniProt Q01973 30-937); assay: flow cytometry, HCT116-hROR1 cells
T1 construct: Mino cells are the target positive cells of the killing assay; also called receptor tyrosine kinase like orphan receptor 1; HCT 116-hROR1

human ROR1-ECD = biological target: T2, human ROR1-ECD (human, UniProt Q01973 30-406); assay: SPR (Biacore), antibody captured by anti-Fc, human ROR1-ECD analyte
T2 construct: Bought protein; also called hROR1; ROR1-extracellular domain
Procedure: Anti-Fc polyclonal antibodies were immobilized onto a CMS chip (GE Life Sciences) using amine coupling chemistry (from Amine Coupling Kit, GE Life Sciences). The immobilization steps were carried out at a flow rate of 25 μL/min in 1×HBS-EP+buffer (GE Life Sciences; 10× Stock diluted before use). The sensor surfaces were activated for 7 min with a mixture of NHS (0.05 M) and EDC (0.2 M). The Anti-Fc antibodies were injected over all 4 flow cells at a concentration of 25 ug/ml in 10 mM sodium acetate, pH 4.5, for 7 min. Ethanolamine (1 M, pH 8.5) was injected for 7 min to block any remaining activated groups.
Off-rate and kinetic binding experiments were performed at 25° C. using 1×HBS-EP+buffer. Test and control antibodies were injected over the anti-Fc surface at concentrations of 5-10 μg/mL for 12 seconds at a flow rate of 10 μL/min on flow cells 2, 3 and 4, followed by a buffer wash for 30 seconds at the same flow rate. […] After capturing ligand (antibody) on the anti-Fc surface, the analyte (hROR1, Fz or Kr domains, Acro Biosystems, Delaware) was bound for 180 seconds, followed by a 600 second dissociation phase at a flow rate of 50 μL/min. Between each ligand capture and analyte binding cycle, regeneration was carried out using 2 injections of 10 mM Glycine pH 2.0 for 30 seconds at 30 μL/min, followed by a 30 second buffer wash step.

[2] = biological target: T1, human ROR1 (hROR1) expressed on cells; assay: cell-based or functional assay

| Binder | Bmax (MFI) [1] [MFI] | Kd [1] [nM] | Kd (human ROR1-ECD) [nM] | koff (human ROR1-ECD) [s⁻¹] | kon (human ROR1-ECD) [M⁻¹ s⁻¹] | Mino Nb-PBD, drug-conjugated 2° antibody Cell Killing IC50 [2] [pM] | Mino Nb-PBD, drug-conjugated 2° antibody Cell Killing Span [2] [%] |
| --- | --- | --- | --- | --- | --- | --- | --- |
| SRP1987-C05 parent (antibody, IgG1, V domains shown, IgG1 with trastuzumab LC; HIS- and FLAG-tagged; cell-free expressed) VH: EVQLVESGGGLVQPGGSLRLSCAASGFNISDYDIHWVRQAPGKGLEWVGGIDPDDGSTDYADSVKGRFTISADTSKNTAYLQMNSLRAEDTAVYYCARDYGVFDYWGQGTLVTVSS VL: not shown | 9500 | 0.04 | 0.694 | 0.000681 | 981000 | 0.77 | 68 |
| SRP2188-A03 (antibody, IgG1, V domains shown, IgG1 with trastuzumab LC; HIS- and FLAG-tagged; cell-free expressed) VH: EVQLVESGGGLVQPGGSLRLSCAASGFNIRDYDIHWVRQAPGKGLEWVGWINPDDGDTYYADSVKGRFTISADTSKNTAYLQMNSLRAEDTAVYYCARDYGVFDYWGQGTLVTVSS VL: not shown | 9700 | 0.03 | 0.508 | 0.000389 | 766000 | 1 | 71 |
| SRP2188-A05 (antibody, IgG1, V domains shown, IgG1 with trastuzumab LC; HIS- and FLAG-tagged; cell-free expressed) VH: EVQLVESGGGLVQPGGSLRLSCAASGFNIKRYDIHWVRQAPGKGLEWVGWINPDDGDTYYADSVKGRFTISADTSKNTAYLQMNSLRAEDTAVYYCARDYGVFDYWGQGTLVTVSS VL: not shown | 9030 | 0.04 | 0.227 | 0.000243 | 1.07e+06 | 1 | 71 |
| SRP2188-A07 (antibody, IgG1, V domains shown, IgG1 with trastuzumab LC; HIS- and FLAG-tagged; cell-free expressed) VH: EVQLVESGGGLVQPGGSLRLSCAASGFNIHHYDIHWVRQAPGKGLEWVGWINPDDGDTYYADSVKGRFTISADTSKNTAYLQMNSLRAEDTAVYYCARDYGVFDYWGQGTLVTVSS VL: not shown | 9330 | 0.07 | 0.609 | 0.000406 | 666000 | 0.48 | 75 |
| SRP2188-A09 (antibody, IgG1, V domains shown, IgG1 with trastuzumab LC; HIS- and FLAG-tagged; cell-free expressed) VH: EVQLVESGGGLVQPGGSLRLSCAASGFNIINYDIHWVRQAPGKGLEWVGWINPDDGDTYYADSVKGRFTISADTSKNTAYLQMNSLRAEDTAVYYCARDYGVFDYWGQGTLVTVSS VL: not shown | 9380 | 0.03 | 0.424 | 0.000401 | 944000 | 0.88 | 71 |
| SRP2188-B03 (antibody, IgG1, V domains shown, IgG1 with trastuzumab LC; HIS- and FLAG-tagged; cell-free expressed) VH: EVQLVESGGGLVQPGGSLRLSCAASGFNISSYDIHWVRQAPGKGLEWVGAIDPGDGATDYADSVKGRFTISADTSKNTAYLQMNSLRAEDTAVYYCARDYGVYDYWGQGTLVTVSS VL: not shown | 9560 | 0.04 | 0.346 | 0.000334 | 965000 | 1.7 | 71 |
| SRP2188-B05 (antibody, IgG1, V domains shown, IgG1 with trastuzumab LC; HIS- and FLAG-tagged; cell-free expressed) VH: EVQLVESGGGLVQPGGSLRLSCAASGFNIPDYDIHWVRQAPGKGLEWVGVIDPDDGWTHYADSVKGRFTISADTSKNTAYLQMNSLRAEDTAVYYCARDYGVFDYWGQGTLVTVSS VL: not shown | 8510 | 0.03 | 0.757 | 0.000671 | 887000 | 1.1 | 70 |
| SRP2188-B07 (antibody, IgG1, V domains shown, IgG1 with trastuzumab LC; HIS- and FLAG-tagged; cell-free expressed) VH: EVQLVESGGGLVQPGGSLRLSCAASGFNIHSHDIHWVRQAPGKGLEWVGWINPDDGDTYYADSVKGRFAISADTSKNTAYLQMNSLRAEDTAVYYCARDYGVFDYWGRGTLVTVSS VL: not shown | 8760 | 0.07 | 0.221 | 0.000194 | 880000 | 1.4 | 72 |
| SRP2188-C09 (antibody, IgG1, V domains shown, IgG1 with trastuzumab LC; HIS- and FLAG-tagged; cell-free expressed) VH: EVQLVESGGGLVQPGGSLRLSCAASGFNINSYDIHWVRQAPGKGLEWVGWINPHDGDTYYADSVTGRFTISADTSKNTAYLQMNSLRAEDTAVYYCARDYGVFDYWGQGTLVTVSS VL: not shown | 9080 | 0.03 | 0.504 | 0.00042 | 833000 | 0.91 | 71 |
| SRP2188-D03 (antibody, IgG1, V domains shown, IgG1 with trastuzumab LC; HIS- and FLAG-tagged; cell-free expressed) VH: EVQLVESGGGLVQPGGSLRLSCAASGFNISDYDIHWVRQAPGKGLEWVGGIDPHDGSTDYADSVKGRFTISADTSKNTAYLQMNSLRAEDTAVYYCARDYGVYDYWGQGTLVTVSS VL: not shown | 9110 | 0.04 | 0.838 | 0.00055 | 656000 | 0.89 | 72 |
| SRP2188-D04 (antibody, IgG1, V domains shown, IgG1 with trastuzumab LC; HIS- and FLAG-tagged; cell-free expressed in the screen; also called mAb 42) VH: EVQLVESGGGLVQPGGSLRLSCAASGFNISDYDIHWVRQAPGKGLEWVGGIDPADGSTDYADSVKGRFTISADTSKNTAYLQMNSLRAEDTAVYYCARDYGVYDYWGQGTLVTVSS VL: not shown | 9690 | 0.04 | 0.426 | 0.000423 | 994000 | 1.4 | 69 |
| SRP2188-D06 (antibody, IgG1, V domains shown, IgG1 with trastuzumab LC; HIS- and FLAG-tagged; cell-free expressed) VH: EVQLVESGGGLVQPGGSLRLSCAASGFNIRDYDIHWVRQAPGKGLEWVGGIDPNDGATDYADSVKGRFTISADTSKNTAYLQMNSLRAEDTAVYYCARDYGVFDYWGQGTLVTVSS VL: not shown | 9810 | 0.04 | 0.628 | 0.000563 | 897000 | 1.5 | 69 |
| SRP2188-D09 (antibody, IgG1, V domains shown, IgG1 with trastuzumab LC; HIS- and FLAG-tagged; cell-free expressed) VH: EVQLVESGGGLVQPGGSLRLSCAASGFNIRDYDIHWVRQAPGKGLEWVVGIDPGDGSTDYADSVKGRFTISADTSKNTAYLQMNSLRAEDTAVYYCARDFGVFDYWGQGTLVTVSS VL: not shown | 8970 | 0.06 | 0.366 | 0.00028 | 766000 | 1.3 | 70 |
| SRP2188-E01 (antibody, IgG1, V domains shown, IgG1 with trastuzumab LC; HIS- and FLAG-tagged; cell-free expressed) VH: EVQLVESGGGLVQPGGSLRLSCAASGFNIGDYDIHWVRQAPGKGLEWVVGIDPQDGATDYADSVKGRFTISADTSKNTAYLQMNSLRAEDTAVYYCARDYGVFDYWGQGTLVTVSS VL: not shown | 9370 | 0.06 | 0.827 | 0.000387 | 468000 | 1.5 | 69 |
| SRP2188-E03 (antibody, IgG1, V domains shown, IgG1 with trastuzumab LC; HIS- and FLAG-tagged; cell-free expressed) VH: EVQLVESGGGLVQPGGSLRLSCAASGFNIRDYDIHWVRQAPGKGLEWVAGIDPDDGSTDYADSVKGRFTISADTSKNTAYLQMNSLRAEDTAVYYCARDYGVYDYWGQGTLVTVSS VL: not shown | 10300 | 0.02 | 0.464 | 0.000333 | 718000 | 1.3 | 65 |
| SRP2188-E04 (antibody, IgG1, V domains shown, IgG1 with trastuzumab LC; HIS- and FLAG-tagged; cell-free expressed) VH: EVQLVESGGGLVQPGGSLRLSCAASGFNISDYDIHWVRQAPGKGLEWVAGIDPQDGSTDYADSVKGRFTISADTSKNTAYLQMNSLRAEDAAVYYCARDFGVFDYWGQGTLVTVSS VL: not shown | 9860 | 0.03 | 0.604 | 0.000468 | 775000 | 0.87 | 66 |
| SRP2188-D01 (antibody, IgG1, V domains shown, IgG1 with trastuzumab LC; HIS- and FLAG-tagged; cell-free expressed) VH: EVQLVESGGGLVQPGGSLRLSCAASGFNIKSYDIHWVRQAPGKGLEWVGWINPYDGDTYYADSVKGRFTISADTSKNTAYLQMNSLRAEDTAVYYCARDYGVFDYWGQGTLVTVSS VL: not shown | 8940 | 0.04 |  |  |  | 1.1 | 72 |
| SRP2188-G01 (antibody, IgG1, V domains shown, IgG1 with trastuzumab LC; HIS- and FLAG-tagged; cell-free expressed) VH: EVQLVESGGGLVQPGGSLRLSCAASGFNISDYDIHWVRQAPGKGLEWVGGIDPNDGATDYADSVKGRFTISADTSKNTAYLQMNSLRAEDTAVYYCARDYGVFDYWGQGTLVTVSS VL: not shown | 9750 | 0.05 |  |  |  | 1.5 | 61 |
